Assay [1] has as its target hCG (LH/CG) receptor of MA-10 transformed murine Leydig cells (murine) (UniProt P30730). Briefly: cell-based or functional assay.
The target is the same in assay [2]. Kind of assay: competitive binding with 125I-hCG on MA-10 cells.
Assay [3] deals with porcine TSH receptor (solubilized porcine thyroid membranes) (porcine) (UniProt Q8SPP9). Kind of assay: competitive displacement of 125I-bTSH from solubilized porcine thyroid membranes.
Assay [4] addresses human TSH receptor (CHO-JP09 cells) (human) (UniProt P16473). Kind of assay: cell-based or functional assay.
Assay [5] concerns the target rat TSH receptor (FRTL-5 cells) (rat) (UniProt P21463). Briefly: cell-based or functional assay.
In assay [6] the target is porcine TSH receptor (solubilized porcine thyroid membranes) (porcine) (UniProt Q8SPP9). Briefly: competitive binding assay to porcine thyroid membranes.

Sequence of hCG (LH/CG) receptor of MA-10 transformed murine Leydig cells (murine) (P30730 27-700): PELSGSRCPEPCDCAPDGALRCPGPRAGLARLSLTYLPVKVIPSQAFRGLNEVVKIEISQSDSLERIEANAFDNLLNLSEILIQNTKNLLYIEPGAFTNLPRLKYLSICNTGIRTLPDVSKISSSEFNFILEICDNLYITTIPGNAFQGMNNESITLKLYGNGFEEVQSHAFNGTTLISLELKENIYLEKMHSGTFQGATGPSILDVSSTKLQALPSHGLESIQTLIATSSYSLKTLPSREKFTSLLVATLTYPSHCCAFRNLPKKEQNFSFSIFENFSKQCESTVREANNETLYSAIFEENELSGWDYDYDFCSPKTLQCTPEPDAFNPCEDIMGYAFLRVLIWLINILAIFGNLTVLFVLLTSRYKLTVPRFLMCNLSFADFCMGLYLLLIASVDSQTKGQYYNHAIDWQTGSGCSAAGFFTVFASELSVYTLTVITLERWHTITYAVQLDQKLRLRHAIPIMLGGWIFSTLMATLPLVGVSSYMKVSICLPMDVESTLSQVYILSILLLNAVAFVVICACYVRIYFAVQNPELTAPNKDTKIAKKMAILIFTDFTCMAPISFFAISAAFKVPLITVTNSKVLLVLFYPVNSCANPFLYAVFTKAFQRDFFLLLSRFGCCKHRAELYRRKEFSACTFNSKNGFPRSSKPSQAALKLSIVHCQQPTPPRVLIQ
Sequence of porcine TSH receptor (solubilized porcine thyroid membranes) (porcine) (Q8SPP9 22-764): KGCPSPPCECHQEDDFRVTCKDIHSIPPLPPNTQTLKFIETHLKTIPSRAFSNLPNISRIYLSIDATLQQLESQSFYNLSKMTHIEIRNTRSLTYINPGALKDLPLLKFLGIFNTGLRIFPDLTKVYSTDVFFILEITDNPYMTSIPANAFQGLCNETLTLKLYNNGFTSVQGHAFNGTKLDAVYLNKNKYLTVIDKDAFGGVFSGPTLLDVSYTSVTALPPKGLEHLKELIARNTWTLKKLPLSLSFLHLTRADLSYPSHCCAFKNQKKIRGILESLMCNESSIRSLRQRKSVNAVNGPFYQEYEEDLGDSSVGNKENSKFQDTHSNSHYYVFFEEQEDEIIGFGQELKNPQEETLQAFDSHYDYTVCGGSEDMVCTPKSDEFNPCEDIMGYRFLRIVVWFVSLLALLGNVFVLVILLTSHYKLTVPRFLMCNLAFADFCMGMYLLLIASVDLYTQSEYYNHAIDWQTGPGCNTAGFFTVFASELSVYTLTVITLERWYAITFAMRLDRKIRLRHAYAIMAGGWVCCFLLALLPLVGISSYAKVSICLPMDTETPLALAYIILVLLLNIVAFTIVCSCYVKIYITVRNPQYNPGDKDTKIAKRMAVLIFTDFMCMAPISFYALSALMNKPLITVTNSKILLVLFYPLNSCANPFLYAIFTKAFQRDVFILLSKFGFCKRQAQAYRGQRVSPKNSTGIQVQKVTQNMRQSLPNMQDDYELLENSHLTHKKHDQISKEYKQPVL
Sequence of rat TSH receptor (FRTL-5 cells) (rat) (P21463 22-764): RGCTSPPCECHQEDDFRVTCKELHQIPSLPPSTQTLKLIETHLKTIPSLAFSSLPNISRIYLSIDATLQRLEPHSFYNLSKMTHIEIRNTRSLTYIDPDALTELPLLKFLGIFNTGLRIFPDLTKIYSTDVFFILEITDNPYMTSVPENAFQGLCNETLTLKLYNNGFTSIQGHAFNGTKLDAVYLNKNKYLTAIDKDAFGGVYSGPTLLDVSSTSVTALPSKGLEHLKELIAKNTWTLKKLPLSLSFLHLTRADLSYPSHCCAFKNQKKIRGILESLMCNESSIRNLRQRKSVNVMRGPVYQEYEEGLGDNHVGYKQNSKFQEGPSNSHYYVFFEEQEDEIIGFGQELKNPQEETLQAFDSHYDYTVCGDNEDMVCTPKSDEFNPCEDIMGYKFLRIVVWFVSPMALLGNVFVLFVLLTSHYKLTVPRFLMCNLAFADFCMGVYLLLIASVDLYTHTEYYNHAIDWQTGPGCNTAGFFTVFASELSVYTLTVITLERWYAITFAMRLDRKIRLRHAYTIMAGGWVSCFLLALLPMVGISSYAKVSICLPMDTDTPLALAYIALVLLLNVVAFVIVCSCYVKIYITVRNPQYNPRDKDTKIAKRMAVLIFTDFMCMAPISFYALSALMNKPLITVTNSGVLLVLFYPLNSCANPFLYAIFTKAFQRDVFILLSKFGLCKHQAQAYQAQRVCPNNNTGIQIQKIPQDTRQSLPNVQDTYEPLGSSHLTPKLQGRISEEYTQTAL

Turning to “hCG α-subunit double mutant P16K + Q20K (from UniProt P01215 25-116; P0DN86 21-165) (ligand)”, in assay [1], the Progesterone synthesis in MA10 cells, EC50 amounted to 1.7 ng/mL and the Progesterone synthesis in MA10 cells, Max (%) was 212 % of WT-hCG.
For the substance “hCG α-subunit mutant P16K with WT-hCGβ (from UniProt P01215 25-116; P0DN86 21-165) (ligand)”, the fold receptor binding activity over WT-hCG in assay [2] came to 4 fold. For the same substance, in assay [1], the Progesterone synthesis in MA10 cells, EC50 came out at 2.05 ng/mL; the Progesterone synthesis in MA10 cells, Max (%) was 161 % of WT-hCG; the progesterone release assay, fold potency over wild type came to 3.4 fold; the stimulation of progesterone production in MA-10 cells, fold over WT-hCG was 4 fold.
In the case of “hCG α-subunit mutant Q13K (from UniProt P01215 25-116; P0DN86 21-165) (ligand)”, in assay [1], the Progesterone synthesis in MA10 cells, EC50 was 2.46 ng/mL and the Progesterone synthesis in MA10 cells, Max (%) was 115 % of WT-hCG.
In the same order, the values of “hCG α-subunit mutant Q20K (from UniProt P01215 25-116; P0DN86 21-165) (ligand)” are 2.98 ng/mL and 134 % of WT-hCG.
For the substance “hCG α-subunit mutant Q50P (from UniProt P01215 25-116; P0DN86 21-165) (ligand)”, in assay [1], the Progesterone synthesis in MA10 cells, EC50 was 3.9 ng/mL and the Progesterone synthesis in MA10 cells, Max (%) is 137 % of WT-hCG.
For “hCG α-subunit mutant R67K (from UniProt P01215 25-116; P0DN86 21-165) (ligand)”, in assay [1], the Progesterone synthesis in MA10 cells, EC50 worked out at 4.6 ng/mL and the Progesterone synthesis in MA10 cells, Max (%) was 145 % of WT-hCG.
Turning to “hCG α-subunit mutant T11K (from UniProt P01215 25-116; P0DN86 21-165) (ligand)”, in assay [1], the Progesterone synthesis in MA10 cells, EC50 was found to be 2.79 ng/mL and the Progesterone synthesis in MA10 cells, Max (%) is 156 % of WT-hCG.
For “hCG α-subunit quadruple mutant Q13K + P16K + Q20K + E14K (from UniProt P01215 25-116; P0DN86 21-165) (ligand)” the same measures were 1.65 ng/mL and 205 % of WT-hCG.
For the substance “hCG α-subunit triple mutant Q13K + P16K + Q20K (from UniProt P01215 25-116; P0DN86 21-165) (ligand)”, in assay [1], the Progesterone synthesis in MA10 cells, EC50 was 1.58 ng/mL and the Progesterone synthesis in MA10 cells, Max (%) was 216 % of WT-hCG.
“hTSH mutant TSHβ-L69R + α Q13K + P16K + Q20K (from UniProt P01215 25-116; P01222 21-132) (ligand)”: in assay [3], the EC25 of inhibition of 125I-bTSH binding worked out at 1.8 ng/mL. Further, in assay [4], the cAMP stimulation in JP09 cells, EC50 was 0.19 ng/mL and the cAMP stimulation in JP09 cells, Relative potency (WT = 1) (fold (WT = 1)) was determined as 35.3. In assay [5], this substance showed a fold lower concentration than WT-hTSH for half-maximal stimulation of 3H-thymidine incorporation in FRTL-5 cells of 27 fold.
In the case of “hTSH mutant TSHβ-L69R + α Q13K + P16K + Q20K + E14K (from UniProt P01215 25-116; P01222 21-132) (ligand)”, the EC25 of inhibition of 125I-bTSH binding in assay [3] was found to be 1.3 ng/mL. In assay [4], the cAMP stimulation in JP09 cells, EC50 was 0.07 ng/mL; the cAMP stimulation in JP09 cells, Relative potency (WT = 1) (fold (WT = 1)) worked out at 95.7; the efficacy (maximal response) of cAMP stimulation in CHO-JP09 cells, fold over WT-hTSH came out at 1.5 fold.
With “hTSH α-subunit double mutant P16K + Q20K (from UniProt P01215 25-116; P01222 21-132) (ligand)”, in assay [3], the EC25 of inhibition of 125I-bTSH binding came out at 6.4 ng/mL. Further, in assay [4], the cAMP stimulation in JP09 cells, EC50 was found to be 0.57 ng/mL and the cAMP stimulation in JP09 cells, Relative potency (WT = 1) (fold (WT = 1)) is 11.8.
Consider “hTSH α-subunit mutant P16K (from UniProt P01215 25-116; P01222 21-132) (ligand)”, for which the fold greater affinity than WT-hTSH in assay [6] came out at 5 fold. The substance also registered an EC25 of inhibition of 125I-bTSH binding in assay [3] of 18.3 ng/mL. Besides, in assay [4], the cAMP stimulation in JP09 cells, EC50 is 1.05 ng/mL and the cAMP stimulation in JP09 cells, Relative potency (WT = 1) (fold (WT = 1)) was determined as 6.4.
With “hTSH α-subunit mutant P16K + F17T (from UniProt P01215 25-116; P01222 21-132) (ligand)”, in assay [4], the cAMP stimulation in JP09 cells, EC50 worked out at 3.52 ng/mL and the cAMP stimulation in JP09 cells, Relative potency (WT = 1) (fold (WT = 1)) was determined as 1.9.
On to “hTSH α-subunit mutant Q13K (from UniProt P01215 25-116; P01222 21-132) (ligand)”, for which the EC25 of inhibition of 125I-bTSH binding in assay [3] worked out at 22.5 ng/mL. In assay [4], the cAMP stimulation in JP09 cells, EC50 came out at 1.89 ng/mL and the cAMP stimulation in JP09 cells, Relative potency (WT = 1) (fold (WT = 1)) worked out at 3.5.
In assay [3], “hTSH α-subunit mutant Q20K (from UniProt P01215 25-116; P01222 21-132) (ligand)” displayed an EC25 of inhibition of 125I-bTSH binding of 21.3 ng/mL. Also, in assay [4], the cAMP stimulation in JP09 cells, EC50 stood at 1.16 ng/mL and the cAMP stimulation in JP09 cells, Relative potency (WT = 1) (fold (WT = 1)) worked out at 5.8.
Regarding “hTSH α-subunit mutant Q50P (from UniProt P01215 25-116; P01222 21-132) (ligand)”, the EC25 of inhibition of 125I-bTSH binding in assay [3] is 77.5 ng/mL. In assay [4], the cAMP stimulation in JP09 cells, EC50 was determined as 5.54 ng/mL and the cAMP stimulation in JP09 cells, Relative potency (WT = 1) (fold (WT = 1)) was determined as 1.2.
In the same order, the values of “hTSH α-subunit mutant R67K (from UniProt P01215 25-116; P01222 21-132) (ligand)” are 62.5 ng/mL, 7.36 ng/mL and 0.9.
Substance “hTSH α-subunit mutant T11K (from UniProt P01215 25-116; P01222 21-132) (ligand)” came in with an EC25 of inhibition of 125I-bTSH binding in assay [3] of 68.3 ng/mL. Moreover, in assay [4], the cAMP stimulation in JP09 cells, EC50 stood at 4.47 ng/mL and the cAMP stimulation in JP09 cells, Relative potency (WT = 1) (fold (WT = 1)) was 1.5.
Take “hTSH α-subunit quadruple mutant Q13K + P16K + Q20K + E14K (from UniProt P01215 25-116; P01222 21-132) (ligand)”: the EC25 of inhibition of 125I-bTSH binding in assay [3] was 2.1 ng/mL. In assay [4], the cAMP stimulation in JP09 cells, EC50 was found to be 0.17 ng/mL; the cAMP stimulation in JP09 cells, Relative potency (WT = 1) (fold (WT = 1)) was 39.4; the efficacy (maximal response) of cAMP stimulation in CHO-JP09 cells, fold over WT-hTSH is 1.5 fold.
On to “hTSH α-subunit triple mutant Q13K + P16K + Q20K with WT-hTSHβ (from UniProt P01215 25-116; P01222 21-132) (ligand)”, for which the EC25 of inhibition of 125I-bTSH binding in assay [3] worked out at 2.3 ng/mL. For the same substance, in assay [4], the cAMP stimulation in JP09 cells, EC50 was 0.28 ng/mL and the cAMP stimulation in JP09 cells, Relative potency (WT = 1) (fold (WT = 1)) was 23.9. Further, the fold lower concentration than WT-hTSH for half-maximal stimulation of 3H-thymidine incorporation in FRTL-5 cells in assay [5] came out at 18 fold.
In the case of “hTSH β-subunit mutant E63R (from UniProt P01215 25-116; P01222 21-132) (ligand)”, the potency relative to hTSH in assay [4] and in assay [5] was 2 to 4 fold in each case.
Take “hTSH β-subunit mutant I58R (from UniProt P01215 25-116; P01222 21-132) (ligand)”: the potency relative to hTSH in assay [4] and in assay [5] was 2 to 4 fold throughout.
Regarding “hTSH β-subunit mutant I58R+E63R (from UniProt P01215 25-116; P01222 21-132) (ligand)”, in assay [4], the efficacy relative to wild type hTSH (cAMP stimulation, FIG. 2g) was 1.5 fold and the potency relative to wild type hTSH (cAMP stimulation, FIG. 2g) was 15 fold.
In assay [4], “hTSH β-subunit mutant I58R+E63R+L69R (from UniProt P01215 25-116; P01222 21-132) (ligand)” yielded an efficacy relative to wild type hTSH (cAMP stimulation, FIG. 2g) of 1.7 fold and a potency relative to wild type hTSH (cAMP stimulation, FIG. 2g) of 50 fold.
With “hTSH β-subunit mutant TSHβ-L69R (from UniProt P01215 25-116; P01222 21-132) (ligand)”, in assay [4], the cAMP stimulation in JP09 cells, EC50 was 2.75 ng/mL and the cAMP stimulation in JP09 cells, Relative potency (WT = 1) (fold (WT = 1)) came out at 2.4.

The values are drawn from US7070788.
